The record followed here is the nanobody polyreactivity screen of Harvey et al. (2022).

The series is described as follows: yeast display, Sf9 membrane polyspecificity reagent, FACS + sequencing; frameworks hold sequencing errors. In outline: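 Genes from sorted yeast were amplified by colony PCR, read by MiSeq 2 × 250 sequencing and filtered on CDR length. These cells carried a synthetic nanobody library in Saccharomyces cerevisiae BJ5465 and were sorted by FACS into low and high (top ~1%) gates on anti-HA and streptavidin fluorescence. Polyreactivity is labelled according to the gate of origin.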
With “QVQLVESGGGLVQAGGSLRLSCAASGSTFKFNAMGWYRQAPGKERELVAAISRGGRTNYADSVKGRFTISRDNAKNTVYLQMNSLKPEDTAVYYCAKDVAGLFHVGALYYYWGQGTQVTVSS”, the “polyreactivity (PSR sort gate)” value is on record as “low polyreactivity”. To “QVQLVESGGGLVQAGGSLRLSCAASGSTFKGYAMGCYRQAPGKERELVAAISWSAGSTYYADSVKGRFTISRDNAKNTVYLQMNSLKPEDTAVYYCAKASVALRYYSYSLGRDYWGQGTQVTVSS” belongs “low polyreactivity”. In the case of “QVQLVESGGGLVQAGGSLRLSCAASGSTFKHYAMGWYRQAPGKERELVAAISERGGSTYYADSVKGRFTISRDNAKNTVYLQMNSLKPEDTAVYYCARRVSRFSKFGYWGQGTQVTVSS”, the “polyreactivity (PSR sort gate)” value is reported as “high polyreactivity”. The result for “QVQLVESGGGLVQAGGSLRLSCAASGSTFKPYTMGWYRQAPGKERELVAGISSVDSTYYADSVKGRFTISRDNAKNTVYLQMNSLKPEDTAVYYCAADTVYIFSSAINGEFGYWGQGTQVTVSS” reads “low polyreactivity”; that for “QVQLVESGGGLVQAGGSLRLSCAASGSTFKPYTMGWYRQAPGKERELVAGISSVDSTYYADSVKGRFTISRDNAKNTVYLQMNSLKPEDTAVYYCNKRKWPTFTYAMNYWGQGTQVTVSS”, “low polyreactivity”.

“QVQLVESGGGLVQAGGSLRLSCAASGSTFKQYAMGWYRQAPGKERELVAAIDRGGSTYYADSVKGRFTNSRDNAKNTVYLQMNSLKPEDTAVYFCAARFVQYLYAYDYWGQGTKVTVSS”: the “polyreactivity (PSR sort gate)” value is on record as “low polyreactivity”.

For “QVQLVESGGGLVQAGGSLRLSCAASGSTFKQYAMGWYRQAPGKERELVAAISSSGSTYYADSVKGRFTISRDNAKNTVYLQMNSLKPEDTAVYYCARSRYLWYTVPPKYGYWGQGTQVTVSS”, the “polyreactivity (PSR sort gate)” value is given as “high polyreactivity”. The result for “QVQLVESGGGLVQAGGSLRLSCAASGSTFKRNAMGWYRQAPGKERELVAAITYSGTRTYYADSVKGRFTISRDNAKNTVYLQMNSLKPEDTAVYYCAVSVPYGMDYWGQGTQVTVSS” reads “high polyreactivity”. The result for “QVQLVESGGGLVQAGGSLRLSCAASGSTFKRYAMGLYRQAPGKERELVASIPSAASTYYADSVKGRFSISRDNAKNTVNLQMNSLKPEDTAVYYCAASAYSALYYWYDYWGQGTQVTVSS” reads “high polyreactivity”. As to “QVQLVESGGGLVQAGGSLRLSCAASGSTFKRYAMGRDRQAPGQERELVAAITWRGGSTYYADSVKGRFTISRDNAKNTVYLQMNSLKPEDTAVYYCNKASWKVGPGIGYDYWGQGTQVTVSS”, the “polyreactivity (PSR sort gate)” value is recorded as “high polyreactivity”.

Turning to “QVQLVESGGGLVQAGGSLRLSCAASGSTFKRYAMGWYRQAHGKERELVAAISRRGGSTYYADSVKGRFTISRDNAKNTVYLQMNSLKPEDTAVYYCAARGTGNIYDYWGQGTQVTVSS”, the “polyreactivity (PSR sort gate)” value is on record as “high polyreactivity”. Take “QVQLVESGGGLVQAGGSLRLSCAASGSTFKRYAMGWYRQAPGKERELVAAITRGGGSTYYADSVKGRFTISRDNAKNTVYLQMNSLKPEDTAVYYCNKGYRDYFTAYLSRYYWGQGTQVTVSS”: the “polyreactivity (PSR sort gate)” value is listed as “high polyreactivity”. The result for “QVQLVESGGGLVQAGGSLRLSCAASGSTFKSYAMGWYRQAPGKERELVAAINWSGGSTYYADSVKGRFTISRDNAKNTVYLQMTSLKPEDTAVYYCNAVYAVRSYDSWGQGTQVTVSS” reads “high polyreactivity”; that for “QVQLVESGGGLVQAGGSLRLSCAASGSTFKSYAMGWYRQAPGKERELVAAITHRGSTYYADSVKGRFTISRDNAKNTVYLQMNSLKPEDTAVYYCAASLRAPSLGHYYYWGQGTQVTVSS”, “high polyreactivity”; that for “QVQLVESGGGLVQAGGSLRLSCAASGSTFKVYAMGWYRQAPGKERELVAAISRSGGRTYYADSVKGRFTISRDNAKNTVYLQMNSLKPEDTAVYYCNRDYTFSQGHYSGSYGYWGQGTQVTVSS”, “high polyreactivity”.

As for “QVQLVESGGGLVQAGGSLRLSCAASGSTFKWYAMGWYRPAPGKEREFVAAITKTGGRTNYADSVKGRFTISRDNAKNTVYLQMNSLKPEDTAVYYCAAGYYAGIYYYWGQGTQVTVSS”, the “polyreactivity (PSR sort gate)” value is “high polyreactivity”. To “QVQLVESGGGLVQAGGSLRLSCAASGSTFKYNAMGWYRQAPGKERELVAAITRGGRTYYADSVKGRFTISRDNAKNTVYLQMNSLKPEDTAVYYCAAKWLGTAGDDYWGQGTQVTVSS” belongs “high polyreactivity”; to “QVQLVESGGGLVQAGGSLRLSCAASGSTFKYYAKGWYRQAPGKERELVAAISASGGTTYYADSVKGRFTISRDNAKNTVYLQMNSLKPEDTAVYYCAARYLTTFSRTDMEYWGQGTQVTVSS”, “low polyreactivity”.

In the case of “QVQLVESGGGLVQAGGSLRLSCAASGSTFKYYSIGWYRQAPGKERELVASITGRTVGTYYADSVKGRFTISRDIAKNTVYLQMNSLKPEDTAVFYCATDLYWDYPDKGYTVSWWYGYWGQGTQVTVSS”, the “polyreactivity (PSR sort gate)” value is reported as “low polyreactivity”. To “QVQLVESGGGLVQAGGSLRLSCAASGSTFKYYTMGWYIQAPGKERELVAAITWRGGSTYYADSVKGRFTISRDNAKNTVYLQMNSLKPEDTAVYYCNVLQRYGASRYDYWGQGTQVTVSS” belongs “high polyreactivity”. To “QVQLVESGGGLVQAGGSLRLSCAASGSTFKYYTMGWYIQAPGKERELVAGITLSGTTTYYADSEKGRFTISRDNAKNTVYLQMNSLKPEDTAVYYCAADYYHDFNAYYYWGQGTQVTVSS” belongs “low polyreactivity”; to “QVQLVESGGGLVQAGGSLRLSCAASGSTFLAYAMGWYRQAPGKERELVAAISSSGGRPYYADSVKGRFTISRDYAKNTVYLQMNSLNPEDTAVYYCAARYKNRGGFGYWGQGTRVTVSS”, “high polyreactivity”. On to “QVQLVESGGGLVQAGGSLRLSCAASGSTFLFNGMGWYRQAPGKERELVAAISRSGGRTYYADSVKGRFTISRDNAKNTVYLQMNSLKPEDTAVYYCAAKYRLSGGYGVDYWGQGTQVTVSS”, for which the “polyreactivity (PSR sort gate)” value is “high polyreactivity”. With “QVQLVESGGGLVQAGGSLRLSCAASGSTFLGYVMGWSRQAPGKERELVAAITRSGGRTYYADSVKGRFTISRDNAKNTVYLQMTSLNPEDTAVYYCAALRGPSFHGYGYWGQGTQVTVSS”, the “polyreactivity (PSR sort gate)” value was “high polyreactivity”. To “QVQLVESGGGLVQAGGSLRLSCAASGSTFLKYTMGWYRQAPGKDRELVAGITRSSGSTYYADSVKGRFTISRDNAKNTVYLHMNSLKPEDTAVYYCAATVYLYTDLAYYWYGYWGQGTQVTVAS” belongs “high polyreactivity”; to “QVQLVESGGGLVQAGGSLRLSCAASGSTFLLYAMGWYRQAPGKERELVATISWGGDGTYYADSVKGRFTISRDHAKNTDYLQMNSLKPDDTAVYDCAAQSYLVQFYFLYYYWGQGTQVTVSS”, “low polyreactivity”; to “QVQLVESGGGLVQAGGSLRLSCAASGSTFLRNAMGWYRQAPGKERELVAAISLGSGSTYYADSVKGRFTISRDNAKNTVYLQMNSLKPEDTAVYYCAADVSRWLDYGYDYWGQVTQVTVSS”, “low polyreactivity”.

In the case of “QVQLVESGGGLVQAGGSLRLSCAASGSTFLRYAMGWYRQAPGKERELVATISRCDDGTYYADSVKGRFKISRDNEKNTVFLQMNSLKPEDNAVYYCDARSWYLYYYWGQGTQVTVSS”, the “polyreactivity (PSR sort gate)” value is “low polyreactivity”.

Regarding “QVQLVESGGGLVQAGGSLRLSCAASGSTFLSNAMGWYRQAPGKERELVAAITIGGSTNYADSVKGRFTISRDNAKNTVYLQMNSLKPEDTAFYFCAADWYYDYAELTRDYDYWGQGTQVTVSS”, the “polyreactivity (PSR sort gate)” value is “low polyreactivity”. The result for “QVQLVESGGGLVQAGGSLRLSCAASGSTFLTNAMGWYRQAPGKERELGAAITWSTGSTYYADSVKGRFTISRDNAKNTVYLQMNSLKPEDTAVYYCNARSEVSYWWGGYWGQGTQVTVSS” reads “low polyreactivity”.
